Results on 10 sequences are retold here after patent US20130326645.

Common to all, as to experiment: cell_activity
One series concerns ZFN 25688 (synthetic). As to conditions: pair 25688/25689, maize.
The next series concerns ZFN 25713 (synthetic). As to conditions: pair 25712/25713, maize.
Another series relates to ZFN 25687 (synthetic). As to conditions: pair 25686/25687, maize.
The subject of the next series is ZFN 29730 (synthetic). As to conditions: pair 29732/29730, donor pDAS000152 10:1, A-genome (B 6306, D 7911), wheat SEC protoplasts.
The test system of the next series is ZFN 25717 (synthetic). As to conditions: pair 25716/25717, maize; text states 380 times control.
Another series deals with ZFN 25716 (synthetic). The following applies: pair 25716/25717, maize; text states 380 times control.
The next series relates to ZFN 25712 (synthetic). The following applies: pair 25712/25713, maize.
The subject of another series is ZFN 29732 (synthetic). The following applies: pair 29732/29730, donor pDAS000152 10:1, A-genome (B 6306, D 7911), wheat SEC protoplasts.
Another series deals with ZFN 25686 (synthetic). The following applies: pair 25686/25687, maize.
The test system of the next series is ZFN 25689 (synthetic). As to conditions: pair 25688/25689, maize.

“TATCGGCACAACAAGACTGCGGGTTCGG (double strand) [25688 site]” yielded an activity (% of IPPK2 ZFN activity) in the series with ZFN 25688 (synthetic) of 108.
For the sequence “GATCAACGGAAGCGGATGGCCCGCTTCT (double strand) [25713 site]”, the activity (% of IPPK2 ZFN activity) in the series on ZFN 25713 (synthetic) amounted to 69.
Turning to “GATAGGTGGCAGTGGCAGTGGCACTGGC (double strand) [25687 site]”, the activity (% of IPPK2 ZFN activity) in the series with ZFN 25687 (synthetic) was 32.
In the series on ZFN 29730 (synthetic), “AGGCAGCACGTGCTCCTGATGCGGGACT (double strand) [29730 site]” returned an activity (ppm NHEJ editing) of 6720.
The sequence “CGGAAGCGGATGGCCCGCTTCTTTAGAA (double strand) [25717 site]” displayed an activity (% of IPPK2 ZFN activity as printed) with ZFN 25717 (synthetic) of 380.
“TGATCGCATCGGGCATCGGCGACTGATG (double strand) [25716 site]” gave an activity (% of IPPK2 ZFN activity as printed) with ZFN 25716 (synthetic) of 380.
Consider “ATCGGGCATCGGCGACTGATGAGCCTTG (double strand) [25712 site]”, for which the activity (% of IPPK2 ZFN activity) in the series on ZFN 25712 (synthetic) was determined as 69.
In turn, “GATCCCAAGCGGTGGTGCTTTCAAGGAC (double strand) [29732 site]” had an activity (ppm NHEJ editing) with ZFN 29732 (synthetic) of 6720.
Consider “CACAACAAGACTGCGGGTTCGGTGGCGC (double strand) [25686 site]”, for which the activity (% of IPPK2 ZFN activity) with ZFN 25686 (synthetic) was 32.
As for “TGGCAGTGGCAGTGGCACTGGCACGGCA (double strand) [25689 site]”, the activity (% of IPPK2 ZFN activity) with ZFN 25689 (synthetic) was determined as 108.
